Reference: the RNAGym collection of RNA variant scans (doi:10.1073/pnas.2313332121)

B1: TPR t1 (parent)
chain: GACCAAUCUGCCCUCAGAGCUCGAGAACAUCUUCGGAUGCAGAGGAGGCAGGCUUCGGUGGCGCGAUAGCGCCAACGUCCUCAACCUCCAAUGCAUCCCACCACAUGAUGAUGCCUGAAGAGCCUUGGUUUUUUG

Variants of: B1
Assay: polymerase ribozyme fitness, log enrichment relative to wild type (log ratio); higher = more active; in vitro selection for triplet polymerase activity
Method in brief: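 In triplicate, a single round of in vitro selection was run on each mutant library, PCR-built and transcribed, covering one subunit of a heterodimeric triplet polymerase ribozyme. Frozen incubation at −7 °C followed annealing with a biotinylated primer, partner subunit and triplets, and extended constructs were then gel-excised, streptavidin-captured and taken through RT-PCR. Fitness is the logarithm of genotype enrichment over wild-type enrichment, from inverse-variance-weighted replicate averages of Illumina-sequenced inputs and outputs. […] only genotypes with ≥10 input reads and ≥1 read per output were kept.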

Variant	polymerase ribozyme fitness (log ratio)
GACCAAUCUGCCCUCAUAGCUCGAGAACAUCUUCGGAUGCAGAGGAGGCAGGCUUCGGUGGCGCGAUAGUGCCAACGGCCUCAACCUCCAAUGCAUCCCACCACAUGAUGAUGCCUGAAGAGCCUUGGUUUUUUG [G17U C70U U78G]	-3.17
GACCAAUCUGCCCUCAUAGCUCGAGAACAUCUUCGGAUGCAGAGGAGGCAGGCUUCGGUGGCGCGAUAGUGCCAACGUCCUCAACCACCAAUGCAUCCCACCACAUGAUGAUGCCUGAAGAGCCUUGGUUUUUUG [G17U C70U U87A]	-4.04
GACCAAUCUGCCCUCAUAGCUCGAGAACAUCUUCGGAUGCAGAGGAGGCAGGCUUCGGUGGCGCGAUAGCGUCAACGUCCUCAACCUCCAAUGCAUCCCACCACAUGAUGAUGCCUGAAGAGCCUUGGUUUUUUG [G17U C72U]	-3.14
GACCAAUCUGCCCUCAUAGCUCGAGAACAUCUUCGGAUGCAGAGGAGGCAGGCUUCGGUGGCGCGAUAGCGUCAACGUCCUCAACCUCCAAUGCAUCCCACCACAUGAUGAUGCCUGAAGAGCCUUGGUAUUUUG [G17U C72U U130A]	-2.54
GACCAAUCUGCCCUCAUAGCUCGAGAACAUCUUCGGAUGCAGAGGAGGCAGGCUUCGGUGGCGCGAUAGCGCGAACGUCCUCAACCUCCAAUGCAUCCCACCACAUGAUGAUGCCUGAAGAGCGUUGCUUUUUUG [G17U C73G C124G G128C]	-2.67
GACCAAUCUGCCCUCAUAGCUCGAGAACAUCUUCGGAUGCAGAGGAGGCAGGCUUCGGUGGCGCGAUAGCGCCAACGUCCUCAACCUACAAUGCAUCCCACCACAUGAUGAUGCCUGAAGAGCCUUGGUUUUUUG [G17U C88A]	-2.77
GACCAAUCUGCCCUCAUAGCUCGAGAACAUCUUCGGAUGCAGAGGAGGCAGGCUUCGGUGGCGCGAUAGCGCCAACGUCCUCAACCUCUAAUGCAUCCCACCACAUGAUGAUGCCUGAAGAGCCUUGGUUUUUUG [G17U C89U]	-1.77
GACCAAUCUGCCCUCAUAGCUCGAGAACAUCUUCGGAUGCAGAGGAGGCAGGCUUCGGUGGCGCGAUAGCGCCAACGUCCUCAACCUCCAAUGCAUCCCAACACAUUAUGAUGCCUGAACAGCCUUAGUUUCUUG [G17U C101A G107U G120C G127A U132C]	-6.51
GACCAAUCUGCCCUCAUAGCUCGAGAACAUCUUCGGAUGCAGAGGAGGCAGGCUUCGGUGGCGCGAUAGCGCCAACGUCCUCAACCUCCAAUGCAUCCCACUACAUGAUGAUGCCUGAAGAGCCUUGGUUUUUUG [G17U C102U]	-4.64
GACCAAUCUGCCCUCAUAGCUCGAGAACAUCUUCGGAUGCAGAGGAGGCAGGCUUCGGUGGCGCGAUAGCGCCAACGUCCUCAACCUCCAAUGCAUCCCACCACAUGAUGAUGUCUGAAGAGCCAUGGUUUUUUG [G17U C114U U125A]	-5.53
GACCAAUCUGCCCUCAUAGCUCGAGAACAUCUUCGGAUGCAGAGGAGGCAGGCUUCGGUGGCGCGAUAGCGCCAACGUCCUCAACCUCCAAUGCAUCCCACCACAUGAUGAUGCCUGAAGAGCAUUGGUUUUUUG [G17U C124A]	-1.01
GACCAAUCUGCCCUCAUAGCUCUAGAACAUCUUCGGAUGCAGAGGAGGCAGGCUUCGGUGGCGCGAUAGCGCCUACGUCCUCAACCUCCAAUGCAUCCCACCACAUGAUGAUGCCUGAAGAGGCUUGGUUUUUUG [G17U G23U A74U C123G]	-5.53
GACCAAUCUGCCCUCAUAGCUCGAGAACAUCUUCGGAUUCAGAGGAGGCAGGCUUCGGUGGCGCGAUAGCGCCAACGUCCUCAACCUUCACUGCAUCCCACCACAUGAUGAUGCCUUAAGAGCCUUGGUUUUUUG [G17U G39U C88U A91C G117U]	-3.62
GACCAAUCUGCCCUCAUAGCUCGAGAACAUCUUCGGAUGCAGAGGAGCCAGGCUUCGGUGGCGCGAUAGCGCCAACGUCCUCAACCUCCAAUGCAUCCCACCACAUGAUGAUGCCUGAAGAGCCUUGGUUUUUUG [G17U G48C]	-2.61
GACCAAUCUGCCCUCAUAGCUCGAGAACAUCUUCGGAUGCAGAGGAGGCAGGCUUCGGUUGCGCGAUAGCGCCAACGUCCUCAACCUUCAAUGCAUUCCACCACAUGAUGAUGCCUGAAAAGCCUUGGUUUUUUG [G17U G60U C88U C97U G120A]	-2.79
GACCAAUCUGCCCUCAUAGCUCGAGAACAUCUUCGGAUGCAGAGGAGGCAGGCUUCGGUGACGCGAUAGCGCCAACGUCCGCAACCUCCAAUGCAUCCCAGCACAUGAUGAUGCCUCAAGAGCCUUGUUUUUUUG [G17U G61A U81G C101G G117C G128U]	-7.2
GACCAAUCUGCCCUCAUAGCUCGAGAACAUCUUCGGAUGCAGAGGAGGCAGGCUUCGGUGGCCCGAUAGCGCUAACGUCCUCAACCUCCAAUGCAUCCCACCACAUGAUGAUGCCUGAAGAGCCUUGGUUUUUUG [G17U G63C C73U]	-1.67
GACCAAUCUGCCCUCAUAGCUCGAGAACAUCUUCGGAUGCAGAGGAGGCAGGCUUCGGUGGCGCGAUAUCGCCAACGUCCUCACCCUCCAAUGCAUCCCACCACAUGAUGAUGCCUGAAGAGCCUUGGUUUUUUG [G17U G69U A84C]	0.342
GACCAAUCUGCCCUCAUAGCUCGAGAACAUCUUCGGAUGCAGAGGAGGCAGGCUUCGGUGGCGCGAUAGCGCCAACGUCCUCAACCUCCAAUGCAUCCCACCACAUGAUGAUGCCUCAAGAGCCUUGGUUUUUUG [G17U G117C]	-5.24
GACCAAUCUGCCCUCAUAGCACGAGAACAUCUUCGGAUGCAGAGGAGGCAGGCUUCGGUGGCGCGAUAGCGCCAACGUCCUCAACCUCCAAUGCAUCCCACCACAUGAUGAUGCCUGAAGAGCCUUGGUUUUUUG [G17U U21A]	-3.26
GACCAAUCUGCCCUCAUAGCACGAGAACAUCUUCGGAUGCAGAGGAGGCAGGCUUCGGUGGCGCGAUAGCGCCAACGUCCUCAACCUCCAAUGCAUCCCACCACAUGAUGACGCCUGAAGAGACUUGGUUUUUUG [G17U U21A U112C C123A]	-3.07
